Results reported in publication PMC6206164, “Fibroblast Growth Factor Binding Protein 3 (FGFBP3) impacts carbohydrate and lipid metabolism” (Scientific Reports, 2018).

B1: MBP-tagged human recombinant BP3 devoid of its signal peptide (natural protein, UniProt Q8TAT2 27-258, looked up)
chain: RREKGAASNVAEPVPGPTGGSSGRFLSPEQHACSWQLLLPAPEAAAGSELALRCQSPDGARHQCAYRGHPERCAAYAARRAHFWKQVLGGLRKKRRPCHDPAPLQARLCAGKKGHGAELRLVPRASPPARPTVAGFAGESKPRARNRGRTRERASGPAAGTPPPQSAPPKENPSERKTNEGKRKAALVPNEERPMGTGPDPDGLDGNAELTETYCAEKWHSLCNFFVNFWNG
notes: also called FGFBP3

Key:
[1] = target: B1; test: ELISA; competitive binding; increasing excess of KLB or KLa bound to immobilised FGF19 or FGF21 (2.5 μg/ml) for 1 h before BP3 or MBP control (0.15 μg/ml); MaxiSorp plates; details: both partners purified
[2] = target: T1, Human recombinant FGFR4 Fc Chimera (human, UniProt P22455 22-369); test: binding to plate-coated receptor detected by western blot; cell-free; FGFR4 Fc chimera coated on MaxiSorp plates; FGF19 (2 μg/ml) ± BP3 or MBP control (1 μg/ml), 2 h room temperature; bound proteins blotted with anti-FGFR4, anti-MBP, anti-FGF19; details: both partners purified
T1 construct: Fibroblast growth factor receptor 4 (FGFR4), human, as Fc chimera; Commercial Fc chimeras of this kind hold the extracellular domain; source: bought: R&D Systems

Row | Binder | binding result [1] | binding result [2]
1 | Recombinant human FGF21 (ligand, UniProt Q9NSA1 29-209, looked up, Fibroblast growth factor 21 (FGF21), human, recombinant; source: bought: R&D Systems) HPIPDSSPLLQFGGQVRQRYLYTDDAQQTEAHLEIREDGTVGGAADQSPESLLQLKALKPGVIQILGVKTSRFLCQRPDGALYGSLHFDPEACSFRELLLEDGYNVYQSEAHGLPLHLPGNKSPHRDPAPRGPARFLPLPGLPPALPEPPGILAPQPPDVGSSDPLSMVGPSQGRSPSYAS | binds | –
2 | B1 | – | binds
